Source: PMC3341331 (2012)

T1: recombinant E protein domain III of DENV-2, flag and hexahistidine tagged (dengue virus type 2)
T1 chain: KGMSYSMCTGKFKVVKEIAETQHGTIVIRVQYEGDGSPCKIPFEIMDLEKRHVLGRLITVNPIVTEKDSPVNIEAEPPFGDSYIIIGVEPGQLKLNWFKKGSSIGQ


Biological target: T1, recombinant E protein domain III of …
Test: SPR

Binder	koff [s⁻¹]
humanized DB32-6 monoclonal antibody (antibody, V domains shown) VH: EVQLQQSGAELVKPGASVNLSCTASGFNIKDTYIHWVKQRPEQGLEWIGRIDPENGNAKYDPNFQAKATIAADTSSNTAYLQLSSLTSEDTAVYYCVRTGSFWYFDVWGQGTLVTVSS VL: not shown	1.7e-06
murine DB32-6 monoclonal antibody (antibody) chain 1: QVQLQQSGAELVKPGASVKLSCTASGFNIKDTYIHWVKQRPGQGLEWIGRIDPENGNAKYDPNFQAKATITADTSSNTAYLHLSSLTSEDTAVYYSVRTGSFWYFDVWGAGTTVTVSS chain 2: not shown	1.7e-06
